IntAct's records for PubMed 21505417

B1: Intraflagellar transport protein 25 (Chlamydomonas reinhardtii), B8LIX8 (parent)
chain: MKDYAREENGGLVVMASCSDERFPPENMLDGKDNTFWVTTGMFPQEFVLRLESCIRVSKITTLSLNVRKLAVEKCDQDKPDQFEKVFEVELANRGDRLQTEVHQVNIRAKYLKFILLQGHGEFATVNRVSVVGGDDDGGGYDEPGGGYGSMQRQPSMGYGGGGGSAATGFAADPGNAAAGGGGGFEDEF
partner: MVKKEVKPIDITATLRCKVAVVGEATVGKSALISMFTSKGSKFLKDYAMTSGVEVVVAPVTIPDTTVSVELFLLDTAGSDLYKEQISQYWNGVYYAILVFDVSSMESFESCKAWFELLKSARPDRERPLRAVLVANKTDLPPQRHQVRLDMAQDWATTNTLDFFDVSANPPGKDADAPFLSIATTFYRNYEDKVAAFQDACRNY

Variants of: B1
Conditions: with ift27_chlre IFT27, A8HN58

Row | Variant | effect of a mutation on the interaction
1 | MKDYAREENGGLVVMASCSDERFPPENMLDGKDNTFWRTTGMFPQEFVLRLESCIRVSKITTLSLNVRKLAVEKCDQDKPDQFEKVFEVELANRGDRLQTEVHQVNIRAKYLKFILLQGHGEFATVNRVSVVGGDDDGGGYDEPGGGYGSMQRQPSMGYGGGGGSAATGFAADPGNAAAGGGGGFEDEF [V38R] | disrupting interaction
2 | MKDYAREENGGLVVMASCSDERFPPENMLDGKDNTFWVTRGMFPQEFVLRLESCIRVSKITTLSLNVRKLAVEKCDQDKPDQFEKVFEVELANRGDRLQTEVHQVNIRAKYLKFILLQGHGEFATVNRVSVVGGDDDGGGYDEPGGGYGSMQRQPSMGYGGGGGSAATGFAADPGNAAAGGGGGFEDEF [T40R] | disrupting interaction
3 | MKDYAREENGGLVVMASCSDERFPPENMLDGKDNTFWVTTGMFPQEFVLRLESCIRVSKITTLSLNVRKLAVEKCDQDKPDQFEKVFEVELANRGDRLQTEVHQVNIRAKYLKFILLQGHGEFAEVNRVSVVGGDDDGGGYDEPGGGYGSMQRQPSMGYGGGGGSAATGFAADPGNAAAGGGGGFEDEF [T125E] | disrupting interaction
